Results reported in patent US20230212543.

Columns and labels:
[1] = target: Asialylated etanercept (etanercept treated with sialidase)
[2] = target: Etanercept (native, fully glycosylated)
[3] = target: T1, TNFαR (the TNFα binding part of etanercept), P20333
T1 chain: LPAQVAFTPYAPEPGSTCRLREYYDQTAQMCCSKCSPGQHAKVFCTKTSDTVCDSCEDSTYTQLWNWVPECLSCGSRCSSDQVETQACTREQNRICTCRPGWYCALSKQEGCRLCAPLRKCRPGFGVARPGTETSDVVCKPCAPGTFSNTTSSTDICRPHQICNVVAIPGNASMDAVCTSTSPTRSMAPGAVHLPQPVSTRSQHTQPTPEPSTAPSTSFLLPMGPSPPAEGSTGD

B1: LS (O-glycoprotein-specific endoprotease encoded by the Amuc1119 gene of Akkermansia muciniphila, with N-terminal Met and C-terminal GSG-His6) (protein)
chain: MEVTVPDALKDRIALKKTARQLNIVYFLGSDTEPVPDYERRLSELLLYLQQFYGKEMQRHGYGARSFGLDIKSPGRVNIIEYKAKNPAAHYPYENGGGWKAAQELDEFFKAHPDRKKSQHTLIIMPTWNDEKNGPDNPGGVPFYGMGRNCFALDYPAFDIKHLGQKTREGRLLTKWYGGMAHELGHGLNLPHNHQTASDGKKYGTALMGSGNYTFGTSPTFLTPASCALLDACEVFSVTPSQQFYEGKPEVEVGDVAISFKGDQILVSGNYKSPQTVKALNVYIQDPPYAVNQDYDAVSFSRRLGKKSGKFSMKIDKKELEGLNNNEFRISLMFILANGLHMQKHFTFHWDALQDYRDGSKSGSGHHHHHH
hydrolysis and release from double-mutant resin, SDS-PAGE (Asialylated Abatacept): could be hydrolyzed and eluted from the double-mutant-resin by LS in 6 h but had a slightly more complete elution after 24 h
hydrolysis and release from double-mutant resin, SDS-PAGE [1]: could be hydrolyzed and eluted from the double-mutant-resin by LS in 6 h but had a slightly more complete elution after 24 h
hydrolysis of substrate, SDS-PAGE [1]: LS was able to hydrolyze etanercept in the presence of sialidase
hydrolysis of substrate, SDS-PAGE [2]: full hydrolysis after overnight incubation
hydrolysis of substrate, SDS-PAGE [3]: LS had activity in all samples except those treated with O-glycosidase.
